Patent US20200040103A1

Legend:
[1] = target: recombinant human KLK5 (human) (UniProt Q9Y337); experiment: Kiapp assay curve, 0.125 nM KLK5, Z-VPR-pNA
[2] = target: recombinant human KLK5 (human) (UniProt Q9Y337); experiment: pro-KLK7 LC/MS assay, 5 nM KLK5
[3] = target: recombinant human KLK5 (human) (UniProt Q9Y337); experiment: direct activity assay, 5 nM KLK5, Boc-VPR-AMC
[4] = target: recombinant human KLK5 (human) (UniProt Q9Y337); experiment: Kiapp, KLK5 0.5-0.0625 nM, Z-VPR-pNA
[5] = target: recombinant human KLK5 (human) (UniProt Q9Y337); experiment: Kiapp assay curve, 0.250 nM KLK5, Z-VPR-pNA
[6] = target: recombinant human KLK5 (human) (UniProt Q9Y337); experiment: KLK5 direct activity assay, 5 nM KLK5, Boc-VPR-AMC
[7] = target: recombinant human KLK5 (human) (UniProt Q9Y337); experiment: pro-KLK7 LC/MS assay, 5 nM KLK5, 15 nM pro-KLK7; box prints neither IC50 nor a unit, IC50 in nM per text
[8] = target: recombinant human KLK5 (human) (UniProt Q9Y337); experiment: pro-KLK1 LC/MS assay, 0.5 nM KLK5
[9] = target: recombinant human KLK5 (human) (UniProt Q9Y337); experiment: Kiapp as the y-intercept of the line of IC50 (nM) versus KLK5 (nM), Z-VPR-pNA
[10] = target: recombinant human KLK5 (human) (UniProt Q9Y337); experiment: pro-KLK7 coupled assay, 5 nM KLK5
[11] = target: recombinant human KLK5 (human) (UniProt Q9Y337); experiment: Kiapp assay curve, 0.500 nM KLK5, Z-VPR-pNA
[12] = target: recombinant human KLK5 (human) (UniProt Q9Y337); experiment: pro-KLK1 LC/MS assay, 0.5 nM KLK5, 300 nM pro-KLK1; single value in the box; unit inferred, nM
[13] = target: recombinant human KLK5 (human) (UniProt Q9Y337); experiment: pro-KLK1 coupled assay, 0.5 nM KLK5, 31.25 nM pro-KLK1, PFR-AMC
[14] = target: recombinant human KLK5 (human) (UniProt Q9Y337); experiment: pro-KLK1 coupled assay, 0.5 nM KLK5
[15] = target: recombinant human KLK5 (human) (UniProt Q9Y337); experiment: SPR BIAcore T200, antibody captured by anti-human Fc, human KLK5 as analyte, 37 C

Chain of recombinant human KLK5 (human) (Q9Y337 67-293): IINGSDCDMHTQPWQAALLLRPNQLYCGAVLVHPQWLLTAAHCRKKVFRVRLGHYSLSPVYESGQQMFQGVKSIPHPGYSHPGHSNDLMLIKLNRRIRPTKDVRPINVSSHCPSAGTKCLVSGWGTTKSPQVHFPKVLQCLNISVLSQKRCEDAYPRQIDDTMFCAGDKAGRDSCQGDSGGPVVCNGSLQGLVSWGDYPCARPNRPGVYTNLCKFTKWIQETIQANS

IC50 (read off the curve) [1]: 0.04 nM
IC50 [2]: 1.44 nM
IC50 [3]: 1.32 nM
Ki [4]: < 0.01 nM
IC50 (read off the curve) [5]: 0.07 nM
IC50 (read off the curve) [6]: 1 to 2 nM
IC50 [7]: 1.44 nM
IC50 [8]: 0.15 nM
Ki [9]: 0.0081 nM
IC50 [10]: 1.53 nM
IC50 (read off the curve) [11]: 0.1 nM
IC50 [12]: 0.152 nM
IC50 (read off the curve) [13]: 0.1 to 0.2 nM
IC50 [14]: 0.14 nM
Kd [15]: < 0.001 nM
koff [15]: < 1e-05 s⁻¹
kon [15]: 2.93e+07 M⁻¹ s⁻¹
B1: 3-3F5 (antibody, V domains shown)
VH: QSVKESEGGLFKPTDTLTLTCTVSGFSLNDYGVSWVRQAPGNGLEWIGAIGSSGVAWYANWAKGRSTITRNTNLNTVTLKMASLTAADTATYFCARDRDYGYRADDATSGMDLWGPGTLVTVSS
VL: AYDMTQTPASVEAAVGGTVTIKCQASESIGNALAWYQQKPGQPPKLLIYDASDLASGVPSRFKGSGSGTQFTLTISGVECADAATYYCQQGDSHNNVDNIFGGGTEVVVK
